# B1: Serine/threonine-protein kinase Warts (Drosophila melanogaster (Fruit fly)), Q9VA38 (parent)
# chain: MHPAGEKRGGRPNDKYTAEALESIKQDLTRFEVQNNHRNNQNYTPLRYTATNGRNDALTPDYHHAKQPMEPPPSASPAPDVVIPPPPAIVGQPGAGSISVSGVGVGVVGVANGRVPKMMTALMPNKLIRKPSIERDTASSHYLRCSPALDSGAGSSRSDSPHSHHTHQPSSRTVGNPGGNGGFSPSPSGFSEVAPPAPPPRNPTACSAATPPPPVPPTSQAYVKRRSPALNNRPPAIAPPTQRGNSPVITQNGLKNPQQQLTQQLKSLNLYPGGGSGAVVEPPPPYLIQGGAGGAAPPPPPPSYTASMQSRQSPTQSQQSDYRKSPSSGIYSATSAGSPSPITVSLPPAPLAKPQPRVYQARSQQPIIMQSVKSTQVQKPVLQTAVAPQSPSSASASNSPVHVLAAPPSYPQKSAAVVQQQQQAAAAAHQQQHQHQQSKPPTPTTPPLVGLNSKPNCLEPPSYAKSMQAKAATVVQQQQQQQQQQQQVQQQQVQQQQQQQQQQLQALRVLQAQAQRERDQRERDQRERERDQQKLANGNPGRQMLPPPPYQSNNNNNSEIKPPSCNNNNIQISNSNLATTPPIPPAKYNNNSSNTGANSSGGSNGSTGTTASSSTSCKKIKHASPIPERKKISKEKEEERKEFRIRQYSPQAFKFFMEQHIENVIKSYRQRTYRKNQLEKEMHKVGLPDQTQIEMRKMLNQKESNYIRLKRAKMDKSMFVKLKPIGVGAFGEVTLVSKIDTSNHLYAMKTLRKADVLKRNQVAHVKAERDILAEADNNWVVKLYYSFQDKDNLYFVMDYIPGGDLMSLLIKLGIFEEELARFYIAEVTCAVDSVHKMGFIHRDIKPDNILIDRDGHIKLTDFGLCTGFRWTHNSKYYQENGNHSRQDSMEPWEEYSENGPKPTVLERRRMRDHQRVLAHSLVGTPNYIAPEVLERSGYTQLCDYWSVGVILYEMLVGQPPFLANSPLETQQKVINWEKTLHIPPQAELSREATDLIRRLCASADKRLGKSVDEVKSHDFFKGIDFADMRKQKAPYIPEIKHPTDTSNFDPVDPEKLRSNDSTMSSGDDVDQNDRTFHGFFEFTFRRFFDDKQPPDMTDDQAPVYV
# partner: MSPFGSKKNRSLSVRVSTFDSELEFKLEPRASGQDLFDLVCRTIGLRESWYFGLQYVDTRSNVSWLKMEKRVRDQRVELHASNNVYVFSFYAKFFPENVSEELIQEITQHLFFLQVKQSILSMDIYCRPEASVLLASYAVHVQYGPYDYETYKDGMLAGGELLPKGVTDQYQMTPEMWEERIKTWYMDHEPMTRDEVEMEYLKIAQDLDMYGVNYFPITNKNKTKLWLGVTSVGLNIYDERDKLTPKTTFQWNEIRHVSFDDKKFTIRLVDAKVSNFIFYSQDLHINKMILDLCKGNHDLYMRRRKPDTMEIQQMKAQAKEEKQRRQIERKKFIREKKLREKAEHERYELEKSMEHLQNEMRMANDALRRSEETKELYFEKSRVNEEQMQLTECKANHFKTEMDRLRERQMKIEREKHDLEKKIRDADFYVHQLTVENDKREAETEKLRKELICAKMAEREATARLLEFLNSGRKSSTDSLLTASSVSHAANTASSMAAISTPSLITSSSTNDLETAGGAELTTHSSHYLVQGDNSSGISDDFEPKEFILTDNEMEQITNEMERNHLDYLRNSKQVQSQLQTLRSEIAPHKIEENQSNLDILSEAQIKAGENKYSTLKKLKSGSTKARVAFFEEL
# B2: Serine/threonine-protein kinase LATS1 (Homo sapiens), O95835 (parent)
# chain: MKRSEKPEGYRQMRPKTFPASNYTVSSRQMLQEIRESLRNLSKPSDAAKAEHNMSKMSTEDPRQVRNPPKFGTHHKALQEIRNSLLPFANETNSSRSTSEVNPQMLQDLQAAGFDEDMVIQALQKTNNRSIEAAIEFISKMSYQDPRREQMAAAAARPINASMKPGNVQQSVNRKQSWKGSKESLVPQRHGPPLGESVAYHSESPNSQTDVGRPLSGSGISAFVQAHPSNGQRVNPPPPPQVRSVTPPPPPRGQTPPPRGTTPPPPSWEPNSQTKRYSGNMEYVISRISPVPPGAWQEGYPPPPLNTSPMNPPNQGQRGISSVPVGRQPIIMQSSSKFNFPSGRPGMQNGTGQTDFMIHQNVVPAGTVNRQPPPPYPLTAANGQSPSALQTGGSAAPSSYTNGSIPQSMMVPNRNSHNMELYNISVPGLQTNWPQSSSAPAQSSPSSGHEIPTWQPNIPVRSNSFNNPLGNRASHSANSQPSATTVTAITPAPIQQPVKSMRVLKPELQTALAPTHPSWIPQPIQTVQPSPFPEGTASNVTVMPPVAEAPNYQGPPPPYPKHLLHQNPSVPPYESISKPSKEDQPSLPKEDESEKSYENVDSGDKEKKQITTSPITVRKNKKDEERRESRIQSYSPQAFKFFMEQHVENVLKSHQQRLHRKKQLENEMMRVGLSQDAQDQMRKMLCQKESNYIRLKRAKMDKSMFVKIKTLGIGAFGEVCLARKVDTKALYATKTLRKKDVLLRNQVAHVKAERDILAEADNEWVVRLYYSFQDKDNLYFVMDYIPGGDMMSLLIRMGIFPESLARFYIAELTCAVESVHKMGFIHRDIKPDNILIDRDGHIKLTDFGLCTGFRWTHDSKYYQSGDHPRQDSMDFSNEWGDPSSCRCGDRLKPLERRAARQHQRCLAHSLVGTPNYIAPEVLLRTGYTQLCDWWSVGVILFEMLVGQPPFLAQTPLETQMKVINWQTSLHIPPQAKLSPEASDLIIKLCRGPEDRLGKNGADEIKAHPFFKTIDFSSDLRQQSASYIPKITHPTDTSNFDPVDPDKLWSDDNEEENVNDTLNGWYKNGKHPEHAFYEFTFRRFFDDNGYPYNYPKPIEYEYINSQGSEQQSDEDDQNTGSEIKNRDLVYV
# B3: Serine/threonine-protein kinase Warts (Drosophila melanogaster (Fruit fly)), Q9VA38 (parent)
# chain: B1 chain
# partner: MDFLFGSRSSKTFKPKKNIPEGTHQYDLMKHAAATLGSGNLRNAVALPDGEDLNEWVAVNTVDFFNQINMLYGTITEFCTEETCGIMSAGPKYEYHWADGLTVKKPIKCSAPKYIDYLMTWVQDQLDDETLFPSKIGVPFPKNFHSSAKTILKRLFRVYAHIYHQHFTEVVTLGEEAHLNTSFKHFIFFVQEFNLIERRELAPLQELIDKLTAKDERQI
# B4: Merlin (Homo sapiens), P35240 (parent)
# chain: MAGAIASRMSFSSLKRKQPKTFTVRIVTMDAEMEFNCEMKWKGKDLFDLVCRTLGLRETWFFGLQYTIKDTVAWLKMDKKVLDHDVSKEEPVTFHFLAKFYPENAEEELVQEITQHLFFLQVKKQILDEKIYCPPEASVLLASYAVQAKYGDYDPSVHKRGFLAQEELLPKRVINLYQMTPEMWEERITAWYAEHRGRARDEAEMEYLKIAQDLEMYGVNYFAIRNKKGTELLLGVDALGLHIYDPENRLTPKISFPWNEIRNISYSDKEFTIKPLDKKIDVFKFNSSKLRVNKLILQLCIGNHDLFMRRRKADSLEVQQMKAQAREEKARKQMERQRLAREKQMREEAERTRDELERRLLQMKEEATMANEALMRSEETADLLAEKAQITEEEAKLLAQKAAEAEQEMQRIKATAIRTEEEKRLMEQKVLEAEVLALKMAEESERRAKEADQLKQDLQEAREAERRAKQKLLEIATKPTYPPMNPIPAPLPPDIPSFNLIGDSLSFDFKDTDMKRLSMEIEKEKVEYMEKSKHLQEQLNELKTEIEALKLKERETALDILHNENSDRGGSSKHNTIKKLTLQSAKSRVAFFEEL
# partner: B2 chain
# Variants of: B1
# Details: with merh_drome Mer
row,effect of a mutation on the interaction,Variant
1,disrupting interaction strength,A20P;I24T;L28P

# Variants of: B2
# Details: with merl_human NF2, P35240
row,effect of a mutation on the interaction,Variant
1,disrupting interaction strength,A77P;I81T;L85P

# Variants of: B2
# Details: with NF2, P35240-1
row,effect of a mutation on the interaction,Variant
1,disrupting interaction strength,A77P;I81T;L85P

# Variants of: B3
# Details: with mob1_drome mats
row,effect of a mutation on the interaction,Variant
1,disrupting interaction strength,R708A

# Variants of: B4
# Details: with lats1_human LATS1, O95835
row,effect of a mutation on the interaction,Variant
1,disrupting interaction strength,MAGAIASRMSFSSLKRKQPKTFTVRIVTMDAEMEFNCEMKWKGKDLFDLVCRTLGLRETWFFGPQYTIKDTVAWLKMDKKVLDHDVSKEEPVTFHFLAKFYPENAEEELVQEITQHLFFLQVKKQILDEKIYCPPEASVLLASYAVQAKYGDYDPSVHKRGFLAQEELLPKRVINLYQMTPEMWEERITAWYAEHRGRARDEAEMEYLKIAQDLEMYGVNYFAIRNKKGTELLLGVDALGLHIYDPENRLTPKISFPWNEIRNISYSDKEFTIKPLDKKIDVFKFNSSKLRVNKLILQLCIGNHDLFMRRRKADSLEVQQMKAQAREEKARKQMERQRLAREKQMREEAERTRDELERRLLQMKEEATMANEALMRSEETADLLAEKAQITEEEAKLLAQKAAEAEQEMQRIKATAIRTEEEKRLMEQKVLEAEVLALKMAEESERRAKEADQLKQDLQEAREAERRAKQKLLEIATKPTYPPMNPIPAPLPPDIPSFNLIGDSLSFDFKDTDMKRLSMEIEKEKVEYMEKSKHLQEQLNELKTEIEALKLKERETALDILHNENSDRGGSSKHNTIKKLTLQSAKSRVAFFEEL [L64P]
2,disrupting interaction strength,MAGAIASRMSFSSLKRKQPKTFTVRIVTMDAEMEFNCEMKWKGKDLFDLVCRTLGLRETWFFGLQYTIKDTVAWLKMDKKVLDHDVSKEEPVTFHFLAKFYPENAEEELVQEITQHLFFLQVKKQILDEKIYCPPEASVLPASYAVQAKYGDYDPSVHKRGFLAQEELLPKRVINLYQMTPEMWEERITAWYAEHRGRARDEAEMEYLKIAQDLEMYGVNYFAIRNKKGTELLLGVDALGLHIYDPENRLTPKISFPWNEIRNISYSDKEFTIKPLDKKIDVFKFNSSKLRVNKLILQLCIGNHDLFMRRRKADSLEVQQMKAQAREEKARKQMERQRLAREKQMREEAERTRDELERRLLQMKEEATMANEALMRSEETADLLAEKAQITEEEAKLLAQKAAEAEQEMQRIKATAIRTEEEKRLMEQKVLEAEVLALKMAEESERRAKEADQLKQDLQEAREAERRAKQKLLEIATKPTYPPMNPIPAPLPPDIPSFNLIGDSLSFDFKDTDMKRLSMEIEKEKVEYMEKSKHLQEQLNELKTEIEALKLKERETALDILHNENSDRGGSSKHNTIKKLTLQSAKSRVAFFEEL [L141P]
3,disrupting interaction strength,MAGAIASRMSFSSLKRKQPKTFTVRIVTMDAEMEFNCEMKWKGKDLFDLVCRTLGLRETWFSGLQYTIKDTVAWLKMDKKVLDHDVSKEEPVTFHFLAKFYPENAEEELVQEITQHLFFLQVKKQILDEKIYCPPEASVLLASYAVQAKYGDYDPSVHKRGFLAQEELLPKRVINLYQMTPEMWEERITAWYAEHRGRARDEAEMEYLKIAQDLEMYGVNYFAIRNKKGTELLLGVDALGLHIYDPENRLTPKISFPWNEIRNISYSDKEFTIKPLDKKIDVFKFNSSKLRVNKLILQLCIGNHDLFMRRRKADSLEVQQMKAQAREEKARKQMERQRLAREKQMREEAERTRDELERRLLQMKEEATMANEALMRSEETADLLAEKAQITEEEAKLLAQKAAEAEQEMQRIKATAIRTEEEKRLMEQKVLEAEVLALKMAEESERRAKEADQLKQDLQEAREAERRAKQKLLEIATKPTYPPMNPIPAPLPPDIPSFNLIGDSLSFDFKDTDMKRLSMEIEKEKVEYMEKSKHLQEQLNELKTEIEALKLKERETALDILHNENSDRGGSSKHNTIKKLTLQSAKSRVAFFEEL [F62S]
4,disrupting interaction strength,MAGAIASRMSFSSLKRKQPKTFTVRIVTMDAEMEFNCEMKWKGKDRFDLVCRTLGLRETWFFGLQYTIKDTVAWLKMDKKVLDHDVSKEEPVTFHFLAKFYPENAEEELVQEITQHLFFLQVKKQILDEKIYCPPEASVLLASYAVQAKYGDYDPSVHKRGFLAQEELLPKRVINLYQMTPEMWEERITAWYAEHRGRARDEAEMEYLKIAQDLEMYGVNYFAIRNKKGTELLLGVDALGLHIYDPENRLTPKISFPWNEIRNISYSDKEFTIKPLDKKIDVFKFNSSKLRVNKLILQLCIGNHDLFMRRRKADSLEVQQMKAQAREEKARKQMERQRLAREKQMREEAERTRDELERRLLQMKEEATMANEALMRSEETADLLAEKAQITEEEAKLLAQKAAEAEQEMQRIKATAIRTEEEKRLMEQKVLEAEVLALKMAEESERRAKEADQLKQDLQEAREAERRAKQKLLEIATKPTYPPMNPIPAPLPPDIPSFNLIGDSLSFDFKDTDMKRLSMEIEKEKVEYMEKSKHLQEQLNELKTEIEALKLKERETALDILHNENSDRGGSSKHNTIKKLTLQSAKSRVAFFEEL [L46R]
